{
  "source": "paper PMC5028202",
  "about": "(ACS chemical biology, 2015)",
  "proteins": {"B1": {"name": "XCL1 CC5 (A36C A49C), disulfide-locked XCL1dim variant (natural protein, UniProt P47992 22-114, looked up)", "chain": "VGSEVSDKRTCVSLTTQRLPVSRIKTYTITEGSLRCVIFITKRGLKVCCDPQATWVRDVVRSMDRKSNTRNNMIQTKPTGTQQSTNTAVTLTG"}},
  "target": "the molecule itself",
  "experiment": "NMR structure",
  "data": [
    {"protein": "B1", "values": [
      {"measurement": "stoichiometry N", "value": 2}
    ]}
  ]
}
